Columns and labels:
[1] = biological target: GMPCPP- and paclitaxel-stabilised microtubules (porcine brain tubulin) (porcine (brain tubulin)); assay: TIRF microscopy microtubule binding assay; 10% rhodamine-labelled GMPCPP/paclitaxel microtubules immobilised on glass by anti-β-tubulin antibody; eGFP–POK2 fragment at increasing concentrations in PEM20-based Reaction Buffer (20 mM K-PIPES pH 6.9, 1 mM MgCl2, 1 mM EGTA, casein, 1 mM ATP, 5 mM DTT); intensity per microtubule length; Hill–Langmuir fit
[2] = biological target: GMPCPP- and paclitaxel-stabilised microtubules (porcine brain tubulin) (porcine (brain tubulin)); assay: single-molecule TIRF microscopy on microtubules; 2 nM eGFP–POK2^2083–2771 in PEM20-based Reaction Buffer on unlabelled stabilised microtubules (IRM); kymographs, landing rate and interaction times of diffusive particles
[3] = biological target: eGFP–POK2^2083–2440 (Arabidopsis thaliana); assay: native gel or EMSA; blue native PAGE, 4–12% Tris-Glycine gels, 100 ng of each protein per lane, anti-GFP western blotting and silver staining; oligomeric state in solution

Row | Kd [1] [µM] | interaction time (subpopulation 1) [2] [s] | interaction time (subpopulation 2) [2] [s] | interaction time (subpopulation 3) [2] [s] | landing rate at 2 nM [2] [µm^−1 min^−1] | stoichiometry N [3] | Substance
1 | 0.106 | 0.9 | 6 | 43 | 0.16 |  | eGFP–POK2^2083–2771–8×His (domain or fragment)
2 |  |  |  |  |  | 2 | eGFP–POK2^2083–2440 (domain or fragment)
